Usually Kd stands for the free concentration of one partner at which half of the binding sites on the other are occupied at equilibrium, for simple one-to-one binding.

Where no end group is shown, it is not given here. Me3 = trimethyl-lysine (Kme3); Me2 = dimethyl-lysine (Kme2)

In one test the target is LEDGF/p52 (UniProt O75475-2 1-333). As to the kind of experiment: NMR titration.
Another test deals with LEDGF/p75 (UniProt O75475 1-530). As to the kind of experiment: SEC. For orientation: Size exclusion chromatography separates by hydrodynamic size, large species first.

B1: histone H3 peptide SAPATGGVKme2KPHRY (peptide)
peptide: SAPATGGVK(Me2)KPHRY
As to B1, the Kd in the test with LEDGF/p52 amounted to 2.4 mM.

B2: histone H3 peptide SAPATGGVKme3KPHRY (peptide)
peptide: SAPATGGVK(Me3)KPHRY
Turning to B2, the Kd with LEDGF/p52 is 2.7 mM.

B3: histone H3 peptide SAPATGGVKKPHRY, unmodified (peptide)
peptide: SAPATGGVKKPHRY
In the test with LEDGF/p52, B3 came in with a dissociation constant Kd of 6 mM.

B4: histone H3 peptide SAPATGGVKme1KPHRY (peptide)
peptide: SAPATGGVK(Me)KPHRY
In the test with LEDGF/p52, B4 yielded a Kd of 5.4 mM.

B5: PogZ(1117–1410) (domain or fragment)
chain: SNAASLPLSMIVAIDEISLFLDTEVLSSDDRKENALQTVGTGEPWCDVVLAILADGTVLPTLVFYRGQMDQPANMPDSILLEAKESGYSDDEIMELWSTRVWQKHTACQRSKGMLVMDCHRTHLSEEVLAMLSASSTLPAVVPAGCSSKIQPLDVCIKRTVKNFLHKKWKEQAREMADTACDSDVLLQLVLVWLGEVLGVIGDCPELVQRSFLVASVLPGPDGNINSPTRNADMQEELIASLEEQLKLSGEHSESSTPRPRSSPEETIEPESLHQLFEGESETESFYGFEEADLDLMEI
With B5, in the test with LEDGF/p75, the binding result is given as “binds”.

The values are drawn from publication PMC10570030 (Nucleic Acids Research, 2023).
